Patent publication US11673947B2, “Target tissue-specific antigen-binding molecule” (Chugai Seiyaku Kabushiki Kaisha, priority 2012, dated 2023)

Tests used:
[1] = biological target: HSA (human serum albumin) (Homo sapiens, UniProt P02768); test: Phage ELISA, binding to HSA in the presence or absence of adenosine and/or ATP; conditions: with or without 10 mM adenosine and ATP
Experimental: Phage-containing culture supernatants were collected according to a conventional method (Methods Mol. Biol. (2002) 178, 133-145) from single colonies of E. coli obtained by the method described above. The collected culture supernatants were treated by ultrafiltration using NucleoFast 96 (MACHERY-NAGEL). 100 μl of the culture supernatants were added to each well of NucleoFast 96, and it was centrifuged (4500 g for 45 minutes) to remove flow through. After addition of 100 μl of H2O, the NucleoFast 96 was washed by centrifugation (4500 g for 30 minutes). Finally, 100 μl of TBS was added, and the NucleoFast 96 was allowed to stand for five minutes at room temperature. A phage suspension was collected from the supernatant in each well of the NucleoFast 96.
The purified phages, to which TBS or (adenosine+ATP)/TBS was added, were subjected to ELISA by the following procedure. A StreptaWell 96 microtiter plate (Roche) was coated overnight with 100 μl of TBS containing biotin-labeled antigen. […] Then, the developed color was assessed by measuring absorbance at 450 nm. […]
First, a StreptaWell 96 microtiter plate (Roche) was coated at room temperature for one hour or more with 100 μl of TBS containing a biotin-labeled antigen. […] Then, the developed color was assessed by measuring absorbance at 450 nm (FIGS. 25, 26, and 27). […]

human IgA-Fc = human IgA-Fc (Homo sapiens, UniProt P01876); test: Phage ELISA, binding to human IgA-Fc in the presence or absence of adenosine and ATP (monovalent / multivalent display)
Sequence of human IgA-Fc (P01876 with tags, fused parts or gaps isoform P01876-1): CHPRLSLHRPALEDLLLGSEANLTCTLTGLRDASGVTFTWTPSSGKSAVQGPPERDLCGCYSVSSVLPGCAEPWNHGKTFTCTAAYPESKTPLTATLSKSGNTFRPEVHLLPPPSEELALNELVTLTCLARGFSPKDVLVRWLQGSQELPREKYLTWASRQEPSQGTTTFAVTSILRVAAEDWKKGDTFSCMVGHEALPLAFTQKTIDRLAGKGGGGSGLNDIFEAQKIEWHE
Experimental: Culture supernatants containing phages were collected according to a conventional method (Methods Mol. Biol. (2002) 178, 133-145) from single colonies of E. coli obtained by the method described above. The collected culture supernatants were ultrafiltrated using NucleoFast 96 (MACHERY-NAGEL). 100 μl of the culture supernatants were added to each well of NucleoFast 96 and centrifuged (4500 g for 45 minutes) to remove flow-through. After 100 μl of H2O was added, the NucleoFast 96 was washed by centrifugation (4500 g for 30 minutes). Finally, 100 μl of TBS was added, and the NucleoFast 96 was allowed to stand for five minutes at room temperature. A phage solution contained in the supernatant in each well was collected.
Purified phages, to which TBS or (adenosine+ATP)/TBS was added, were subjected to ELISA by the following procedure. A StreptaWell 96 microtiter plate (Roche) was coated overnight with 100 μl of TBS containing a biotin-labeled antigen. After the antigen was removed from each well of the plate by washing with TBST, the wells were blocked with 250 μl of 2% skim milk/TBS for one hour or more. 2% skim milk/TBS was removed, and then the prepared, purified phages were added to each well. […] Then, the developed color was assessed by measuring absorbance at 450 nm.

B1: HSADSA1-6_020: clone with antigen-binding activity to HSA in the absence of ATP and adenosine (antibody, V domains shown)
VH: EVQLVESGGDLVKPGGGLRLSCAASGFTFSSHTMNWVRQAPGKGLEWVSSISSRSNHATYADSVKGRFTISRDNAKNSLYLQMNSLRAEDTAVYYCARFGKKGRYLWVFDYWGQGTLVTVSS
VL: QSALTQPPSASGSPGQTVTISCTGTSSDVGDYNYVSWYQQHPGKAPKLMIYYVSKRPSGVPDRFSGSKSGNTASLTVSGLQAEDEADYFCSLTTDSLNPVFGGGTKLTVL
antigen-binding activity to human serum albumin (HSA) in the absence of ATP and adenosine [1]: had antigen-binding activity

B2: IADL3C5-4_048: clone binding human IgA-Fc in the presence of adenosine and ATP; SEQ ID NOs: 100 and 101 (antibody, listed as Homo sapiens, V domains shown)
VH: EVQLVESGGDLVKPGGGLRLSCAASGFTFSGHTMNWVRQAPGKGLEWVSSISSRSNHIYYADSVKGRFTISRDNAKNSLYLQMNSLRAEDTAVYYCARYGRKFMMNWVFDYWGQGTLVTVSS
VL: QSALTQPPSASGSPGQTVTISCTGTSTDVGFYNYVSWYQQHPGKAPKLMIYQNSKRPSGVPDRFSGSKSGNTASLTVSGLQAEDEADYFCSLRSSNLSPGFGGGTKLTVL
antigen-binding activity in the presence of adenosine and ATP (human IgA-Fc): exhibits antigen-binding activity
